For 1 substance, percent of cells positive (COL-1 binding) (% of the cells) results are on record in patent US20040091995A1.

The target of this test is human carcinoembryonic antigen (CEA) on MC-38-CEA-2 cells (human) (UniProt P06731). Kind of test: FACS analysis of MC-38-CEA-2 tumor cells.
UniProt P06731, sequence (P06731 35-702): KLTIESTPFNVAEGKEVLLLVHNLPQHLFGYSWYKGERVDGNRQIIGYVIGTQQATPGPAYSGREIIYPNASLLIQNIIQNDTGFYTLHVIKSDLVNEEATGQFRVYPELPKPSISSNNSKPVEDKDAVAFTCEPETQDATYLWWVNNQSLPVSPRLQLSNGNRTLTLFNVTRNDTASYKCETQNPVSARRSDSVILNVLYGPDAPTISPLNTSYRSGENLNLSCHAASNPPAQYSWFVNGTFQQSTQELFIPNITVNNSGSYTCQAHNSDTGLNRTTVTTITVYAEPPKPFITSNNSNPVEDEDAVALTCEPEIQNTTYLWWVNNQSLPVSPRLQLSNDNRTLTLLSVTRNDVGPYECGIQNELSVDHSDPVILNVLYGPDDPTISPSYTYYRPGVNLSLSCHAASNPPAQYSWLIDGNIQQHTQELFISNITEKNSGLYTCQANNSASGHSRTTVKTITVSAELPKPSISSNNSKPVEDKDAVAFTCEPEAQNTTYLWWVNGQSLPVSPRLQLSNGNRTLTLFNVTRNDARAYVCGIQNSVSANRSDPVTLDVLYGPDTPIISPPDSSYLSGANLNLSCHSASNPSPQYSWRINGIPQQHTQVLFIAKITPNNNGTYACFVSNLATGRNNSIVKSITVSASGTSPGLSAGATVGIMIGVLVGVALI

The substance “murine IgG2a anti-CEA MAb, COL-1 (antibody)” displayed a percent of cells positive (COL-1 binding) (% of the cells) of over 85.
